Laboratory results: patent US20140072613A1, “Compositions and Methods for Treating Cutaneous Scarring” (priority 2012, published 2014)

How the values were obtained:
Experiment in all cases: cell-based or functional assay
Abl(T315I)(h) (human) = Abl(T315I)(h) (human) (UniProt P00519)
Axl(h) (human) = target: T1, Axl(h) (human) (UniProt P30530)
T1 sequence (looked up): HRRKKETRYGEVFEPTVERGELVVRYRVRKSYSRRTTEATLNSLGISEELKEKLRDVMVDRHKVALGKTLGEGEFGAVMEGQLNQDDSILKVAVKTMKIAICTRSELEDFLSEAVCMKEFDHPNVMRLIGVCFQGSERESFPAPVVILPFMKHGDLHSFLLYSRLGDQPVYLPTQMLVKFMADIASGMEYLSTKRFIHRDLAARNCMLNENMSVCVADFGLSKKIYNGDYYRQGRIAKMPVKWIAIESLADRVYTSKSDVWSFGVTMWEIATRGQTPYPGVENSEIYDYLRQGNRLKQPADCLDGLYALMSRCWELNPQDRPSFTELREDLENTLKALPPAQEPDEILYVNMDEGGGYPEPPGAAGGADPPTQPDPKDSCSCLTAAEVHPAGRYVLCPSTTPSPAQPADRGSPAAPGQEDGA

EphA3(h) (human) = target: T2, EphA3(h) (human) (UniProt P29320)
T2 sequence (looked up): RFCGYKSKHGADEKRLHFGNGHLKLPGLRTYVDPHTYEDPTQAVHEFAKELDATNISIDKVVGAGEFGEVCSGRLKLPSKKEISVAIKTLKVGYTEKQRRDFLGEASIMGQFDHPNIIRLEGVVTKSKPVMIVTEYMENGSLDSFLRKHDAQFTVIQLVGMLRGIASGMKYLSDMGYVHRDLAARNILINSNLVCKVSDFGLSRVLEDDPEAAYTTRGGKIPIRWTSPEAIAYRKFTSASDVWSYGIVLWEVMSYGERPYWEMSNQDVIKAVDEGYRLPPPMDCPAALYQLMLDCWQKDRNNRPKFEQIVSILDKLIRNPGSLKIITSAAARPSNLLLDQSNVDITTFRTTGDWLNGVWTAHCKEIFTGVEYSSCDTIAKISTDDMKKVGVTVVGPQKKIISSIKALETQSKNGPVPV

EphA8(h) (human) = target: T3, EphA8(h) (human) (UniProt P29322)
T3 sequence (looked up): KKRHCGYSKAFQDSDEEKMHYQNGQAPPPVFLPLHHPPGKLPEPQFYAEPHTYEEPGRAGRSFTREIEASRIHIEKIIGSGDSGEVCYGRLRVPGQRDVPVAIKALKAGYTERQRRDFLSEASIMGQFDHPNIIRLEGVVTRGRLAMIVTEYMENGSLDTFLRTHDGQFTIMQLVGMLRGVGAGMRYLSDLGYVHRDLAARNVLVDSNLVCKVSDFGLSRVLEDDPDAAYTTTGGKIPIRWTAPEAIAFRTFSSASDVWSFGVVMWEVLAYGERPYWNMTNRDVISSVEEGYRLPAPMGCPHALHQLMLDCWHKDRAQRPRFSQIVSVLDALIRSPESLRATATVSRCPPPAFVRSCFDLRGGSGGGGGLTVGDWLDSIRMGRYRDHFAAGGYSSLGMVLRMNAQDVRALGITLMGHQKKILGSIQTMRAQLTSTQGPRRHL

PAR-1Bα(h) (human) = PAR-1Bα(h) (human) (UniProt Q7KZI7)
PDK1(h) (human) = target: T4, PDK1(h) (human) (UniProt O15530)
T4 sequence (looked up): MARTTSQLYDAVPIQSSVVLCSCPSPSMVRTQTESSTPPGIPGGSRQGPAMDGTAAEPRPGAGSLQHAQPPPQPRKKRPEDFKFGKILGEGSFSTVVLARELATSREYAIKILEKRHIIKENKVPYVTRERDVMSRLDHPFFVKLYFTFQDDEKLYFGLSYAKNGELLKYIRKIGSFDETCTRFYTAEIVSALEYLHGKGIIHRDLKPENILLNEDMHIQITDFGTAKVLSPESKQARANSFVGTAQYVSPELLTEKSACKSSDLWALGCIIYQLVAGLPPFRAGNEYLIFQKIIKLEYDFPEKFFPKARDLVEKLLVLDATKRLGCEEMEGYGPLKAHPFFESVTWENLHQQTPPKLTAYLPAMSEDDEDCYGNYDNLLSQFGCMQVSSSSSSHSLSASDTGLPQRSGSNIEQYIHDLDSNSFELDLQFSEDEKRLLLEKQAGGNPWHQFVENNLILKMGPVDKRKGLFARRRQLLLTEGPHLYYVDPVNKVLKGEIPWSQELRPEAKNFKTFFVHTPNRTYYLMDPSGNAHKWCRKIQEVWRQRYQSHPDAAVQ

PhKγ2(h) (human) = target: T5, PhKγ2(h) (human) (UniProt P15735)
T5 sequence (looked up): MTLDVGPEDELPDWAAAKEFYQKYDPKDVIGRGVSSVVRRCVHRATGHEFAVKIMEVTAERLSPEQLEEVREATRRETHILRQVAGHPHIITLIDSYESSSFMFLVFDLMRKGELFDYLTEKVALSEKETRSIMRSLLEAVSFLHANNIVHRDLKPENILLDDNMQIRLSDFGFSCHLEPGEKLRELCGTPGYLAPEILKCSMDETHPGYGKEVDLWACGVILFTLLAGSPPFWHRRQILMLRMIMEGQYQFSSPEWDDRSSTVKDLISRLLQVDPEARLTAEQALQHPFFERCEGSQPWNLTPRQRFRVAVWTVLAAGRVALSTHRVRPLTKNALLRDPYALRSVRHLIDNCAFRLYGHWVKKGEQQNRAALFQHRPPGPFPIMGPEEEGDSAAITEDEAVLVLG

Rsk2(h) (human) = Rsk2(h) (human) (UniProt P51812)
c-RAF(h) (human) = c-RAF(h) (human) (UniProt P04049)
cKit(V654A)(h) (human) = cKit(V654A)(h) (human) (UniProt P10721)
p70S6K(h) (human) = p70S6K(h) (human) (UniProt P23443)
Chain of p70S6K(h) (human) (P23443 1-421): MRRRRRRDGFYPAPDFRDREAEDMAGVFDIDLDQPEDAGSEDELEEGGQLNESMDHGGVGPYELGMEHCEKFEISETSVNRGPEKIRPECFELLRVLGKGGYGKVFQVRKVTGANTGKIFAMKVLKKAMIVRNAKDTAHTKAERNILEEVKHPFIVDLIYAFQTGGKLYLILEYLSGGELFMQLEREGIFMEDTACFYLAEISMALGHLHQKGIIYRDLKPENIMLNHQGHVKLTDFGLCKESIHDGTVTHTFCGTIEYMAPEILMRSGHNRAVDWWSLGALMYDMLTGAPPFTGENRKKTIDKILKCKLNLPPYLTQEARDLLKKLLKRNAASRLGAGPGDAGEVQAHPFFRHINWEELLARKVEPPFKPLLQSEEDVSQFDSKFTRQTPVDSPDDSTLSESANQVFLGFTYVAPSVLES

Chain of Abl(T315I)(h) (human) (P00519 27-1130 T315I limits assumed): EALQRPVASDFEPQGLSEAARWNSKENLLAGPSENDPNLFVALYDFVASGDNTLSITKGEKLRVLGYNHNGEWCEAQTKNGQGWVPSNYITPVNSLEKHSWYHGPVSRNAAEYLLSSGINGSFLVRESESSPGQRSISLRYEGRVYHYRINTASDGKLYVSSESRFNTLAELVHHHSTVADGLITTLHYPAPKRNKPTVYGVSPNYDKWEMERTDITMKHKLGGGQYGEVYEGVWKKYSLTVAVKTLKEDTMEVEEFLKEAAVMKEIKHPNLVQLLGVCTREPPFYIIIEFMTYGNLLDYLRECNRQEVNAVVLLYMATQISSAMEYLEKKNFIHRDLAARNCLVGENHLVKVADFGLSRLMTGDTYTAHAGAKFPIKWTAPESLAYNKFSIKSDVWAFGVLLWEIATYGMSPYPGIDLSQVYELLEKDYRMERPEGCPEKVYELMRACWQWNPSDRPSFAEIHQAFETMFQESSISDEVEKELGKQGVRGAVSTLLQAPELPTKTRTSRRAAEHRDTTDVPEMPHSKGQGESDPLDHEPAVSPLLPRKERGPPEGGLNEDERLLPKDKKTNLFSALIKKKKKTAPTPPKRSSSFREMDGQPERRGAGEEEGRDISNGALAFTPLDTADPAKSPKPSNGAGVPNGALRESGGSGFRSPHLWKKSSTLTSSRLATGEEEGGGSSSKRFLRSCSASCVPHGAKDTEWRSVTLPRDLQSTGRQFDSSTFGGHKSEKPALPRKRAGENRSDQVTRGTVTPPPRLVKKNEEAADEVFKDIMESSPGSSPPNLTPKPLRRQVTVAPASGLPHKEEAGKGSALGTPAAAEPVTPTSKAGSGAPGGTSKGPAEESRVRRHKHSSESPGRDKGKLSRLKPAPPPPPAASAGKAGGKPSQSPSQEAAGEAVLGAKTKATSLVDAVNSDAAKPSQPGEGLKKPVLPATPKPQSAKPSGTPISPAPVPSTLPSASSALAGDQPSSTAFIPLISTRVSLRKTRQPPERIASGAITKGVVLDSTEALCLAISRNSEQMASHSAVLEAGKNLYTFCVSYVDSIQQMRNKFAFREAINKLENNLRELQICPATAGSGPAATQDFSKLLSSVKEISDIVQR
Chain of cKit(V654A)(h) (human) (P10721 544-976 V654A): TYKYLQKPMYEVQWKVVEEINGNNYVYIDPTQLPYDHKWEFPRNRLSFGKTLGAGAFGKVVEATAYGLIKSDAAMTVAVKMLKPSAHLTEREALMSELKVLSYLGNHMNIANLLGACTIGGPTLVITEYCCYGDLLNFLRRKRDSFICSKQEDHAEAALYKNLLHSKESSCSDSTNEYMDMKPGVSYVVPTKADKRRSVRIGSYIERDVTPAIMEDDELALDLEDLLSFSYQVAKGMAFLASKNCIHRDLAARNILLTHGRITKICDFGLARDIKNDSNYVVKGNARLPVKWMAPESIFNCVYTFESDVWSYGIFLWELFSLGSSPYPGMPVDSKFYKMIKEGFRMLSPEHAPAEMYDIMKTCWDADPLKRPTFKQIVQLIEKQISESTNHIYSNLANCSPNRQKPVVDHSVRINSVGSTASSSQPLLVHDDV
Chain of PAR-1Bα(h) (human) (Q7KZI7 other isoform, or with tags, fused parts or gaps limits assumed): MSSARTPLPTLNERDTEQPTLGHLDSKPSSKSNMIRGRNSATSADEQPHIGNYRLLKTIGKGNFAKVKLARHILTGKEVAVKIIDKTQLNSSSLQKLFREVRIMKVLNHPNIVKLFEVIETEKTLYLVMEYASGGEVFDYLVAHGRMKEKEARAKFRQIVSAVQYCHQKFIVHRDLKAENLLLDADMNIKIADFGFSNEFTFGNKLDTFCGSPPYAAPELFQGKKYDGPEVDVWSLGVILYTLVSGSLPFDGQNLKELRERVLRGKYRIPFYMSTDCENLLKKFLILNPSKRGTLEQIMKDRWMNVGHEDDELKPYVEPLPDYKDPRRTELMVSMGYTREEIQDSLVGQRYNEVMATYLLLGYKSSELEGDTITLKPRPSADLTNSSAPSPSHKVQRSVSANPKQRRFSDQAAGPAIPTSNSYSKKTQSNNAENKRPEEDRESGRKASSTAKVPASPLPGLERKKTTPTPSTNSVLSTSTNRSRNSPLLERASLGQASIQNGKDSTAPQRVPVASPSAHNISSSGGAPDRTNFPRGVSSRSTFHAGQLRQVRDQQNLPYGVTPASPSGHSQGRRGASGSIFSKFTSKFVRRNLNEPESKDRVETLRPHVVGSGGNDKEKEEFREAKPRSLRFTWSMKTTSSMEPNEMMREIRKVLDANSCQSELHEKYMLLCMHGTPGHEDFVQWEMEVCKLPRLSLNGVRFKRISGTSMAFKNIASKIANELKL
Chain of Rsk2(h) (human) (P51812 whole entry): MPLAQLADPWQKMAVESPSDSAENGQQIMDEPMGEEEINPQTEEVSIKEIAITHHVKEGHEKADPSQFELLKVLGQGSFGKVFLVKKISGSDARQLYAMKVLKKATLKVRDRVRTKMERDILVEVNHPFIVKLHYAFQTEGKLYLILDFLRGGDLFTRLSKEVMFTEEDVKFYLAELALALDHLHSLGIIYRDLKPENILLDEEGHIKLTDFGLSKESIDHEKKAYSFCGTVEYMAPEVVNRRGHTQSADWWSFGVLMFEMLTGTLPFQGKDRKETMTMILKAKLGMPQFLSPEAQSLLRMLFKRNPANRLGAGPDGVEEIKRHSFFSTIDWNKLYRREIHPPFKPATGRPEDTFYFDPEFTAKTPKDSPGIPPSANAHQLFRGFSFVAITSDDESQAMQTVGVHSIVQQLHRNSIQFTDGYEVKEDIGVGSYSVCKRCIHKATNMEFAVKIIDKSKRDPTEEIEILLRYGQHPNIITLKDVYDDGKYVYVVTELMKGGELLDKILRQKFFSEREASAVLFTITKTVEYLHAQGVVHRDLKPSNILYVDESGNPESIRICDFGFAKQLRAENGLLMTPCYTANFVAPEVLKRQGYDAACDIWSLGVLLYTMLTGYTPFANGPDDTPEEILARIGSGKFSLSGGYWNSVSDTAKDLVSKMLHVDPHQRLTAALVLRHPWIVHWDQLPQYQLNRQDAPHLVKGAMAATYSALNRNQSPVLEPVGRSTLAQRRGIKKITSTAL

% activity, 100 µM (Abl(T315I)(h) (human)): 16%
% activity, 100 µM (Axl(h) (human)): 12%
% activity, 100 µM (EphA3(h) (human)): 33%
% activity, 100 µM (EphA8(h) (human)): 337%
% activity, 100 µM (PAR-1Bα(h) (human)): 97%
% activity, 100 µM (PDK1(h) (human)): 178%
% activity, 100 µM (PhKγ2(h) (human)): 16%
% activity, 100 µM (Rsk2(h) (human)): 14%
% activity, 100 µM (c-RAF(h) (human)): 19%
% activity, 100 µM (cKit(V654A)(h) (human)): 223%
% activity, 100 µM (p70S6K(h) (human)): 3%
Substance: MMI-0500 (peptide)
